Laboratory results from patent US20250312499A1, “KISSPEPTIN RECEPTOR (KISS1R) TARGETED THERAPEUTICS AND USES THEREOF” (priority 2024, published 2025).
One block for each binder: values may come before it. Numbered stars: 1 amine (or outer) side, 2 acyl side, 3 side chain; on linkers, the order of the positions; unused ones are H or OH. Square brackets hold non-standard residues; d marks the D form. Ends that are not written are not given here. * marks the point of attachment. X2 = 4‑amino‑1‑((3-fluoro-4-methylbenzyl)glycyl)piperidine‑4‑carboxylic acid, Cc1ccc(CN(CC(=O)N2CCC(N[*:1])(C(=O)[*:2])CC2)[*:3])cc1F; X10 = 3‑(2-(2-(3-(4-iodophenyl)propanamido)ethoxy)ethoxy)propanoyl, O=C(CCc1ccc(I)cc1)NCCOCCOCCC(=O)*; X6 = 3‑(2-(2-(3-(p-tolyl)propanamido)ethoxy)ethoxy)propanoyl, Cc1ccc(CCC(=O)NCCOCCOCCC(=O)*)cc1; DOTA = O=C(O)CN1CCN(CC(=O)O)CCN(CC(=O)*)CCN(CC(=O)O)CC1; Butanoyl(4-(4-I-phenyl)) = O=C(CCCc1ccc(I)cc1)*; Api(1-amidino) = N=C(N)N1CCC(N)(C(=O)O)CC1; Phe(4-CN) = N#Cc1ccc(C[C@H](N)C(=O)O)cc1; HO(CH2CH2O)2CH2CH2CO = O=C(CCOCCOCCO)*; d2Nal = N[C@H](Cc1ccc2ccccc2c1)C(=O)O; d4Pal = N[C@H](Cc1ccncc1)C(=O)O; Cha = N[C@@H](CC1CCCCC1)C(=O)O; Octanoyl = CCCCCCCC(=O)*; Ahx = NCCCCCC(=O)O; azaGly = NNC(=O)O; Sar = CNCC(=O)O

Target: human kisspeptin receptor (KISS1R) (human), Q969F8
Sequence (Q969F8 whole entry): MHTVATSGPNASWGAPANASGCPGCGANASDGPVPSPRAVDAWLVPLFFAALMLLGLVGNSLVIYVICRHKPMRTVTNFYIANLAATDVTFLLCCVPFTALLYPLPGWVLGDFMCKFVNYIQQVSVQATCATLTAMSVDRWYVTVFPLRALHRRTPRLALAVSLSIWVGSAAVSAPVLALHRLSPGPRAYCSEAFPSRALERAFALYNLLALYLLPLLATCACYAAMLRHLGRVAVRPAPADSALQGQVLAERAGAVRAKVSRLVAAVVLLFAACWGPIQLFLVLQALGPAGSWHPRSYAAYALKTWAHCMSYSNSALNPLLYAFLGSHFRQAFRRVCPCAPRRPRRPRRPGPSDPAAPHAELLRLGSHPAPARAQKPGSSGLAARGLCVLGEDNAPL
Experiment: radioligand competition, hKISS1R membranes; legend: A is <10 nM

Binder: Octanoyl-[dY][dK](DOTA)NT[Cha][azaGly]L[4‑amino‑1‑carbamimidoylpiperidine‑4‑carboxylic acid(Sarcosine)][dW]-NH2 [Compound 355]
Ki: < 10 nM

B1: Compound 380 (peptide)
peptide: Ac-[dY]K(DOTA)NTF[azaGly]L[X2]W-NH2
SMILES: CC(=O)N[C@H](Cc1ccc(O)cc1)C(=O)N[C@@H](CCCCNC(=O)CN1CCN(CC(=O)O)CCN(CC(=O)O)CCN(CC(=O)O)CC1)C(=O)N[C@@H](CC(N)=O)C(=O)N[C@H](C(=O)N[C@@H](Cc1ccccc1)C(=O)NNC(=O)N[C@@H](CC(C)C)C(=O)NC1(C(=O)N[C@@H](Cc2c[nH]c3ccccc23)C(N)=O)CCN(C(=O)CNCc2ccc(C)c(F)c2)CC1)[C@@H](C)O
Ki: < 10 nM

B2: Compound 381 (peptide)
peptide: Octanoyl-[dY]K(DOTA)NTF[azaGly]L[X2]W-NH2
SMILES: CCCCCCCC(=O)N[C@H](Cc1ccc(O)cc1)C(=O)N[C@@H](CCCCNC(=O)CN1CCN(CC(=O)O)CCN(CC(=O)O)CCN(CC(=O)O)CC1)C(=O)N[C@@H](CC(N)=O)C(=O)N[C@H](C(=O)N[C@@H](Cc1ccccc1)C(=O)NNC(=O)N[C@@H](CC(C)C)C(=O)NC1(C(=O)N[C@@H](Cc2c[nH]c3ccccc23)C(N)=O)CCN(C(=O)CNCc2ccc(C)c(F)c2)CC1)[C@@H](C)O
Ki: < 10 nM

B3: Compound 334 (peptide)
peptide: X10-[dY][dK](DOTA)NTF[azaGly]L[Api(1-amidino)]W-NH2
SMILES: CC(C)C[C@H](NC(=O)NNC(=O)[C@H](Cc1ccccc1)NC(=O)[C@@H](NC(=O)[C@H](CC(N)=O)NC(=O)[C@@H](CCCCNC(=O)CN1CCN(CC(=O)O)CCN(CC(=O)O)CCN(CC(=O)O)CC1)NC(=O)[C@@H](Cc1ccc(O)cc1)NC(=O)CCOCCOCCNC(=O)CCc1ccc(I)cc1)[C@@H](C)O)C(=O)NC1(C(=O)N[C@@H](Cc2c[nH]c3ccccc23)C(N)=O)CCN(C(=N)N)CC1
Ki: < 10 nM

Binder: X6-[dY][dK](DOTA)NT[Cha][azaGly]L[4‑amino‑1‑carbamimidoylpiperidine‑4‑carboxylic acid(Sarcosine)][dW]-NH2 [Compound 358]
Ki: < 10 nM

B5: Compound 338 (peptide)
peptide: X6-[dY][dK](DOTA)NTF[azaGly]L[Api(1-amidino)]W-NH2
SMILES: Cc1ccc(CCC(=O)NCCOCCOCCC(=O)N[C@H](Cc2ccc(O)cc2)C(=O)N[C@H](CCCCNC(=O)CN2CCN(CC(=O)O)CCN(CC(=O)O)CCN(CC(=O)O)CC2)C(=O)N[C@@H](CC(N)=O)C(=O)N[C@H](C(=O)N[C@@H](Cc2ccccc2)C(=O)NNC(=O)N[C@@H](CC(C)C)C(=O)NC2(C(=O)N[C@@H](Cc3c[nH]c4ccccc34)C(N)=O)CCN(C(=N)N)CC2)[C@@H](C)O)cc1
Ki: < 10 nM

Binder: Octanoyl-[dY][dK](DOTA)NTF[azaGly]L[4‑amino‑1‑carbamimidoylpiperidine‑4‑carboxylic acid(Sarcosine)]W-NH2 [Compound 354]
Ki: < 10 nM

B6: Compound 333 (peptide)
peptide: X6-[dY]K(DOTA)NTF[azaGly]L[Api(1-amidino)][Phe(4-CN)]-NH2
SMILES: Cc1ccc(CCC(=O)NCCOCCOCCC(=O)N[C@H](Cc2ccc(O)cc2)C(=O)N[C@@H](CCCCNC(=O)CN2CCN(CC(=O)O)CCN(CC(=O)O)CCN(CC(=O)O)CC2)C(=O)N[C@@H](CC(N)=O)C(=O)N[C@H](C(=O)N[C@@H](Cc2ccccc2)C(=O)NNC(=O)N[C@@H](CC(C)C)C(=O)NC2(C(=O)N[C@@H](Cc3ccc(C#N)cc3)C(N)=O)CCN(C(=N)N)CC2)[C@@H](C)O)cc1
Ki: < 10 nM

B8: Compound 379 (peptide)
peptide: {HO(CH2CH2O)2CH2CH2CO}-[dY]K(DOTA)NTF[azaGly]L[X2]W-NH2
SMILES: Cc1ccc(CNCC(=O)N2CCC(NC(=O)[C@H](CC(C)C)NC(=O)NNC(=O)[C@H](Cc3ccccc3)NC(=O)[C@@H](NC(=O)[C@H](CC(N)=O)NC(=O)[C@H](CCCCNC(=O)CN3CCN(CC(=O)O)CCN(CC(=O)O)CCN(CC(=O)O)CC3)NC(=O)[C@@H](Cc3ccc(O)cc3)NC(=O)CCOCCOCCO)[C@@H](C)O)(C(=O)N[C@@H](Cc3c[nH]c4ccccc34)C(N)=O)CC2)cc1F
Ki: < 10 nM

Binder: X6-[dY]K(DOTA)NT[Cha][azaGly]L[4‑amino‑1‑carbamimidoylpiperidine‑4‑carboxylic acid(Sarcosine)]W-NH2 [Compound 387]
Ki: < 10 nM

B9: Compound 383 (peptide)
peptide: {DOTA-Ahx}-[dY][dW]NTF[azaGly]L[X2][dW]-NH2
SMILES: Cc1ccc(CNCC(=O)N2CCC(NC(=O)[C@H](CC(C)C)NC(=O)NNC(=O)[C@H](Cc3ccccc3)NC(=O)[C@@H](NC(=O)[C@H](CC(N)=O)NC(=O)[C@@H](Cc3c[nH]c4ccccc34)NC(=O)[C@@H](Cc3ccc(O)cc3)NC(=O)CCCCCNC(=O)CN3CCN(CC(=O)O)CCN(CC(=O)O)CCN(CC(=O)O)CC3)[C@@H](C)O)(C(=O)N[C@H](Cc3c[nH]c4ccccc34)C(N)=O)CC2)cc1F
Ki: < 10 nM

Binder: {DOTA-NH‑PEG2‑propanoyl}-[dY][dW]NTF[azaGly]L[X2]W-NH2 [Compound 382]
Ki: < 10 nM

Binder: [dY]K(DOTA)NTF[azaGly]L[4‑amino‑1‑carbamimidoylpiperidine‑4‑carboxylic acid(Sarcosine)]W-NH2 (not fully specified (N-terminus)) [Compound 384]
Ki: < 10 nM

B10: Compound 336 (peptide)
peptide: {DOTA-Ahx}-[dK](Butanoyl(4-(4-I-phenyl)))[dY][d2Nal]NTF[azaGly]L[Api(1-amidino)]W-NH2
SMILES: CC(C)C[C@H](NC(=O)NNC(=O)[C@H](Cc1ccccc1)NC(=O)[C@@H](NC(=O)[C@H](CC(N)=O)NC(=O)[C@@H](Cc1ccc2ccccc2c1)NC(=O)[C@@H](Cc1ccc(O)cc1)NC(=O)[C@@H](CCCCNC(=O)CCCc1ccc(I)cc1)NC(=O)CCCCCNC(=O)CN1CCN(CC(=O)O)CCN(CC(=O)O)CCN(CC(=O)O)CC1)[C@@H](C)O)C(=O)NC1(C(=O)N[C@@H](Cc2c[nH]c3ccccc23)C(N)=O)CCN(C(=N)N)CC1
Ki: < 10 nM

Binder: {DOTA-Ahx}-[dK](4‑(p-tolyl)butanoyl)[dY][d2Nal]NTF[azaGly]L[Api(1-amidino)]W-NH2 [Compound 335]
Ki: < 10 nM

Binder: {DOTA-NH‑PEG2‑propanoyl}-[dY][d4Pal]NTF[azaGly]L[X2]W-NH2 [Compound 368]
Ki: < 10 nM

The next lines start with the values.

Ki: < 10 nM
Binder: {1‑(3-fluoro-4-methylphenyl)‑4‑oxo‑8,11‑dioxa‑2,5‑diazatetradecan‑14‑oyl}-[dY]K(DOTA)NTF[azaGly]L[4‑amino‑1‑carbamimidoylpiperidine‑4‑carboxylic acid(Sarcosine)][dW]-NH2 [Compound 359]

Ki: < 10 nM
B4: Compound 366 (peptide)
peptide: {DOTA-Ahx}-[dY][dW]NTF[azaGly]L[X2]Y-NH2
SMILES: Cc1ccc(CNCC(=O)N2CCC(NC(=O)[C@H](CC(C)C)NC(=O)NNC(=O)[C@H](Cc3ccccc3)NC(=O)[C@@H](NC(=O)[C@H](CC(N)=O)NC(=O)[C@@H](Cc3c[nH]c4ccccc34)NC(=O)[C@@H](Cc3ccc(O)cc3)NC(=O)CCCCCNC(=O)CN3CCN(CC(=O)O)CCN(CC(=O)O)CCN(CC(=O)O)CC3)[C@@H](C)O)(C(=O)N[C@@H](Cc3ccc(O)cc3)C(N)=O)CC2)cc1F

Ki: < 10 nM
Binder: X6-[dY]K(DOTA)NT[Cha][azaGly]L[4‑amino‑1‑carbamimidoylpiperidine‑4‑carboxylic acid(Sarcosine)][dW]-NH2 [Compound 356]

Ki: < 10 nM
B7: Compound 365 (peptide)
peptide: {DOTA}-G[dY][d2Nal]NTF[azaGly]L[X2]W-NH2
SMILES: Cc1ccc(CNCC(=O)N2CCC(NC(=O)[C@H](CC(C)C)NC(=O)NNC(=O)[C@H](Cc3ccccc3)NC(=O)[C@@H](NC(=O)[C@H](CC(N)=O)NC(=O)[C@@H](Cc3ccc4ccccc4c3)NC(=O)[C@@H](Cc3ccc(O)cc3)NC(=O)CNC(=O)CN3CCN(CC(=O)O)CCN(CC(=O)O)CCN(CC(=O)O)CC3)[C@@H](C)O)(C(=O)N[C@@H](Cc3c[nH]c4ccccc34)C(N)=O)CC2)cc1F

Ki: < 10 nM
Binder: [N‑(3-fluoro-4-methylbenzyl)glycine][dY]K(DOTA)NTF[azaGly]L[4‑amino‑1‑carbamimidoylpiperidine‑4‑carboxylic acid(Sarcosine)][dW]-NH2 [Compound 360]

Ki: < 10 nM
Binder: Octanoyl-[dY][dK](DOTA)NTF[azaGly]L[4‑amino‑1‑carbamimidoylpiperidine‑4‑carboxylic acid(Sarcosine)][dW]-NH2 [Compound 353]

Ki: < 10 nM
B11: Compound 17 (peptide)
peptide: {DOTA}-[Sar][Sar]F[azaGly]L[X2]W-NH2
SMILES: Cc1ccc(CNCC(=O)N2CCC(NC(=O)[C@H](CC(C)C)NC(=O)NNC(=O)[C@H](Cc3ccccc3)NC(=O)CN(C)C(=O)CN(C)C(=O)CN3CCN(CC(=O)O)CCN(CC(=O)O)CCN(CC(=O)O)CC3)(C(=O)N[C@@H](Cc3c[nH]c4ccccc34)C(N)=O)CC2)cc1F

Ki: < 10 nM
Binder: X6-[dY]K(DOTA)NT[Cha][azaGly]L[4‑amino‑1‑carbamimidoylpiperidine‑4‑carboxylic acid(Sarcosine)]W-NH2 [Compound 357]
